Patent publication US20150203575A1 (Genentech, published 2015)

Key:
Assay in all cases: cDNA expression library screen with PILRα-AP supernatant on COS7 transfectants; positive clones further analysed by FACS
BR3 expressed on cells = target: T1, BR3 expressed on cells (human, UniProt Q96RJ3 1-184)
T1 construct: Clone of the Origene human cDNA library
T1 sequence: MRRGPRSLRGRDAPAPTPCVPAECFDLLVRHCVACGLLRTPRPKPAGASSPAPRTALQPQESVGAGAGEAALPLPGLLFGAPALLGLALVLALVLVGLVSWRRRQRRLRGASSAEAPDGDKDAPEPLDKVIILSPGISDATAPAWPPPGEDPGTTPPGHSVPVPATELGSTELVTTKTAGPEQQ
Procedure: (§1) COS7 cells were plated in a 24-well format and transfected with 10 ul of Origene library DNA (Origene, human DNA library containing 20 k genes) per well with Fugene 6 Reagent. Two days later, cells were incubated with human or mouse PILRα-Ap supernatants for 45 min at room temperature (RT). Then cells were fixed with 4% PFA for 15 min at RT. After removing fixation buffer, cells were blocked with 100 mM Glycine in HBS (20 mM Hepes, PH7.2, 150 mM NaCl) for 15 min at RT. Cells were then rinsed and incubated in HBS for 90 min at 65° C. HBS was removed and Western Blue Substrate (Promega) was added and color was developed for 30 min to 1 hr.

[1] = target: T2, FceRII expressed on cells (human, UniProt P06734 1-321)
T2 construct: Clone of the Origene human cDNA library; also called FcRII
T2 sequence: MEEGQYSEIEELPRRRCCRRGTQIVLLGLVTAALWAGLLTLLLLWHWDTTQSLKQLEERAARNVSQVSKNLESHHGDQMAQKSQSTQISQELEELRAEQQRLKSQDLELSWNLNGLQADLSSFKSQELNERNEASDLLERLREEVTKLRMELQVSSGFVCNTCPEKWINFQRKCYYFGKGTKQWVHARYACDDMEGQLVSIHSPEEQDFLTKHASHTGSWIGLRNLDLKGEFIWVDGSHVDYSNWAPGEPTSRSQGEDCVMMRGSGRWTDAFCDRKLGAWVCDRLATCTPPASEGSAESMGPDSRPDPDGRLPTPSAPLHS
Procedure: as §1

APLP1 expressed on cells = target: T3, APLP1 expressed on cells (human, UniProt P51693 39-650)
T3 construct: Clone of the Origene human cDNA library; also called Amyloid beta precursor like protein 1
T3 sequence: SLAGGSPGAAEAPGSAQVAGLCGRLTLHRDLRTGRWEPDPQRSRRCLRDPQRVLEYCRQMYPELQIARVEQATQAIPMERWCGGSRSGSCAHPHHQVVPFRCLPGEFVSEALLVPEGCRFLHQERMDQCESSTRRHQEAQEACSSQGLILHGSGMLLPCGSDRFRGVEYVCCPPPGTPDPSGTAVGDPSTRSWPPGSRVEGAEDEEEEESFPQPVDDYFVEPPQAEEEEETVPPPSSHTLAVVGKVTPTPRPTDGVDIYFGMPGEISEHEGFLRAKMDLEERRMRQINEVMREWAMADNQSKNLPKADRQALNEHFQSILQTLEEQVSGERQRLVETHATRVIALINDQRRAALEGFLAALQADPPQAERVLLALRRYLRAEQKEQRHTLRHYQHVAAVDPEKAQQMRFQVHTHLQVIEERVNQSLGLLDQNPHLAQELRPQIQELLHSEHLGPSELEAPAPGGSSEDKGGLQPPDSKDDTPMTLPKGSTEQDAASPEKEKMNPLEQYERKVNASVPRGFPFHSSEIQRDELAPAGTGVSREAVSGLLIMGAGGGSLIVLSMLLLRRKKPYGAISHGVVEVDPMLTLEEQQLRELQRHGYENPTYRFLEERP
Procedure: as §1

[2] = target: T4, IL15-RA expressed on cells (human, UniProt Q13261 31-267)
T4 construct: Clone of the Origene human cDNA library; also called Interleukin 15 receptor alpha
Procedure: as §1

Measured: binding result

T4 sequence (Q13261 31-267 limits assumed): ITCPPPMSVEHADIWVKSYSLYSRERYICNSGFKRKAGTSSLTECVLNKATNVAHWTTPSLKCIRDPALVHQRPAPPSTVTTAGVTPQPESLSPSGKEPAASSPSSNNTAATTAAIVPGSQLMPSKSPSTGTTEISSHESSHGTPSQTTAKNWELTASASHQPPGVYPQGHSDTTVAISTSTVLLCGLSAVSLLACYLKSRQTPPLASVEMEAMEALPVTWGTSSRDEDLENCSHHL

B1: hPILRα-AP (other)
chain: QPSGSTGSGPSYLYGVTQPKHLSASMGGSVEIPFSFYYPWELATAPDVRISWRRGHFHRQSFYSTRPPSIHKDYVNRLFLNWTEGQKSGFLRISNLQKQDQSVYFCRVELDTRSSGRQQWQSIEGTKLSITQAVTTTTQRPSSMTTTWRLSSTTTTTGLRVTQGKRRSDSWHISLET
notes: Used as culture supernatant; also called human PILRα-AP; Alkaline phosphatase (AP)-tagged PILRα construct; not shown: C-terminal alkaline phosphatase (AP) tag
binds: all assays above
